Laboratory results taken from paper PMC7198388, “Radiohybrid Ligands: A Novel Tracer Concept Exemplified by ^18F- or ^68Ga-Labeled rhPSMA Inhibitors” (Journal of Nuclear Medicine, 2020).
Where two headings read alike, the source gives them in different places.

How the values were obtained:
[1] = system: LNCaP cells; conditions: 1 h, 37°C, % of (125I-I-BA)KuE, 18F reference ligands, mean ± SD, n = 3; cited from earlier work
Text: page 20: 8. Supplemental Data 1 Supplemental Table 1.

[2] = biological target: T1, human serum albumin (Homo sapiens, UniProt P02768); conditions: affinity HPLC, Chiralpak HSA column; 19F reference ligands; cited from earlier work
T1 construct: purchased Daicel H13H-2433
T1 sequence (P02768 25-609): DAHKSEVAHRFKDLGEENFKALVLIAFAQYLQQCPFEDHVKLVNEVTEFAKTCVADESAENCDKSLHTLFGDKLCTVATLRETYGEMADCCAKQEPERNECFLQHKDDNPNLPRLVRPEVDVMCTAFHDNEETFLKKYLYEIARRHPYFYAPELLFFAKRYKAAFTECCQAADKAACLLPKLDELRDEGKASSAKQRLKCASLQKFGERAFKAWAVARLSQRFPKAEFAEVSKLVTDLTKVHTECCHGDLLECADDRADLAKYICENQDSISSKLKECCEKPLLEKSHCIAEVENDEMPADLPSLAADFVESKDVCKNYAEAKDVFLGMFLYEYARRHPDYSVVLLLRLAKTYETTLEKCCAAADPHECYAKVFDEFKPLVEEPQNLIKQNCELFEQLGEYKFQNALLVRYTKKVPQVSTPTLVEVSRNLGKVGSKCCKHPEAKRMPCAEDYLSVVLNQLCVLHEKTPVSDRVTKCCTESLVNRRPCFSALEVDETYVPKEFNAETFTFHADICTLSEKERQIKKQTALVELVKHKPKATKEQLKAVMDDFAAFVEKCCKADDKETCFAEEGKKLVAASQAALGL
Description: Binding to HSA was assessed by means of a recently described HPLC method (Fig. 3D) ([34]). […] Supplemental Data 1 Supplemental Table 1.

[3] = system: LNCaP tumor-bearing male CB-17 SCID mice; conditions: 1 h p.i., mean ± SD, n = 4, cited from earlier work
Description: page 21: 9. Supplemental Data 2 Supplemental Table 2. Biodistribution of 68Ga-19F-rhPSMA-7 to 10, 18F-rhPSMA-7 and the reference ligands 18F-DCFPyL and 18F-PSMA-1007 at 1 h p.i. in LNCaP tumor-bearing SCID mice (n=3 for 68Ga-19F-rhPSMA-7 to 9, n=3 for 18F-rhPSMA-7, n=4 for 68Ga-19F-rhPSMA-10, 18F-DCFPyL and 18F-PSMA- 1007). Data for reference ligands were taken from a previously published study by our group (3). Values are expressed as a percentage of injected dose per gram (%ID/g), mean ± standard deviation. 18 18 68Ga-natF- 68Ga-natF- 68Ga-natF- 68Ga-natF- 18F-rhPSMA-7 Organ F-DCFPyL F-PSMA- ...

[4] = system: LNCaP cells; assay: Internalization into LNCaP cells, normalized to (125I-I-BA)KuE; format: cell-based, human; conditions: LNCaP cells 1.25 x 10^5/well, 1 h, 37°C, ligand 0.5 nM/well; % of specific internalization of (125I-I-BA)KuE; 68Ga-19F or 18F free-chelator form; mean ± SD, n = 3
Description: Internalization studies were carried out according to a previously published procedure (1). Briefly, LNCaP cells were harvested 24 ± 2 hours before the experiment and seeded in poly -L-lysine coated 24-well plates […]
After removal of the culture medium, the cells were washed once with 500 µL DMEM -F12 (5% BSA) and left to equilibrate for at least 15 min at 37 °C in 200 µL DMEM-F12 (5% BSA). Each well was treated with either 25 µL of either DMEM-F12 (5% BSA, control) or 25 µL of a 100 µM PMPA (2-(Phosphonomethyl)-pentandioic acid, Tocris Bioscience, Bristol, UK) solution in PBS, for blockade. Next, 25 µL of the radioactive-labelled PSMA inhibitor (5.0 nM in PBS) was added and the cells were incubat ed at 37 °C for 60 min. The experiment was terminated by placing the 24 -well plate on ice for 3 min and consecutive removal of the medium. Each well was carefully washed with 250 µL of ice-cold HBSS. Both fractions from the first steps, representing the amount of free radioligand, were combined. Removal of surface bound activity was accomplished by incubation of the cells with 250 µL of ice-cold PMPA (10 µM in PBS) solution for 5 min […]
and rinsed again with another 250 µL of ice-cold PBS. The internalized activity was determined by incubation of the cells in 250 µL 1 M aqueous NaOH for at least 10 min. The obtained fractions were combined with those of the subsequent wash step with 250 µL 1 M aqueous NaOH. Each experiment (control and blockade) was performed in triplicate. Free, surface bound and internalized activity was quantified in a γ-counter. All internalization studies were accompanied by external reference studies, using […]
Data were corrected for non-specific

[5] = Lipophilicity, n-octanol/PBS partition coefficient; format: physicochemical; conditions: pH 7.4
Description: Approximately 1 MBq of the labeled tracer was dissolved in 1 mL of a 1:1 mixture (v/v) of PBS (pH 7.4) and n-octanol in a reaction vial (n = 6). After vigorous mixing of the suspension for 3 min at r.t., the vial was centrifuged at 15,000g for 3 min (Biofuge 15, Heraus Sepatech), and 100 μL aliquots of both layers were measured in a γ-counter.

[6] = Biodistribution in LNCaP tumor-bearing CB-17 SCID mice; conditions: male, mouse, in vivo, iv, 0.2 nmol, total radioactivity, Biodistribution
Text: Mice were used for experiments when tumors had grown to a diameter of 5–10 mm (3–6 wk after inoculation).
Selected organs were removed, weighed, and measured in a γ-counter.

[7] = biological target: T2, PSMA (Homo sapiens, UniProt Q04609); assay: Competitive binding (IC50) on LNCaP cells with (125I-I-BA)KuE as radioligand; conditions: LNCaP cells 1.5 x 10^5/well, 1 h, 4°C, (125I-I-BA)KuE 0.2 nM/well, HBSS 1% BSA; natGa-19F or 19F free-chelator form; mean ± SD, n = 3
T2 construct: PSMA-positive LNCaP cells (300265; Cell Lines Service) were cultivated; host or cells: LNCaP human prostate carcinoma cells
T2 sequence (Q04609 whole entry): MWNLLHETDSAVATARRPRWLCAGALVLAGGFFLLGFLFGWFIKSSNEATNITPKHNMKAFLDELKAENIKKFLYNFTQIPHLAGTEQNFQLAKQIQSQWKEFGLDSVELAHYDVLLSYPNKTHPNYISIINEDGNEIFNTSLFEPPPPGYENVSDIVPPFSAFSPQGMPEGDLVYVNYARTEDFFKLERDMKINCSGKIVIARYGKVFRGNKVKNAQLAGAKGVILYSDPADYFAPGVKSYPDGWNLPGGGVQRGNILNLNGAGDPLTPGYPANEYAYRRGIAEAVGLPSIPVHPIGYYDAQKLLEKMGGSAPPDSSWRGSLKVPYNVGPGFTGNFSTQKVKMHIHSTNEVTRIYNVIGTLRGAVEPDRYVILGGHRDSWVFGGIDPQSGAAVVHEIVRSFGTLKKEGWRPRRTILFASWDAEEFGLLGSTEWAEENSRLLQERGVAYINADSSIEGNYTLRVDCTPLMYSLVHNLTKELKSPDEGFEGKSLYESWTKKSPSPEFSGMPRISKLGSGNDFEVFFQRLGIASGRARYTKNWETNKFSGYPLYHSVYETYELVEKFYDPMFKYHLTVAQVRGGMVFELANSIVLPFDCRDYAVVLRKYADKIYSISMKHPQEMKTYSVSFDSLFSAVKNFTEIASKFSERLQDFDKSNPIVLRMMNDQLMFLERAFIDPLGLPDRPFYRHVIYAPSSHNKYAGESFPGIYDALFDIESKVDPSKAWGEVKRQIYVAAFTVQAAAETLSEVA
Description: Data were corrected for nonspecific binding and normalized to the specific-internalization observed for the radioiodinated reference compound (n = 3). […]
with water (10 mL). The purified product was eluted with 50% aqueous ethanol (2 mL), phosphate buffered saline (PBS, 1 mL) and again water (1 mL). After removing ethanol in vacuo, purity of the radiolabelled compounds was determined by radio-HPLC and radio-TLC (ITLC-SG chromatography paper, mobile phase: 0.1 M trisodium citrate and Silica gel 60 RP-18 F254s, mobile phase: 3:2 mixture (v/v) of MeCN in H2O supplemented with 10% of 2 M NaOAc solution and 1% of TFA).
6. Human Serum Albumin (HSA) Binding
HSA binding of the PSMA-addressing ligands was determined according to a previously published procedure via HPLC (7). A Chiralpak HSA column (50 x 3 mm, 5 μm, H13H-2433, Daicel, Tokyo, Japan) […]
literature, in the range of 13 to 99% (7,8). All substances, including the examined PSMA ligands, were […]
final concentration of 0.5 mg/mL.
(Northampton, United States).
Affinity determinations (IC50)
The PSMA affinity (IC50) determinations and synthesis of the radioiodinated reference ligand (((S)-1- […]
described previously (1). Briefly, the respective ligand was diluted (serial dilution 10-4 to 10-10) in Hank’s balanced salt solution (HBSS, Biochrom). […]
(1% BSA). […] Quantification of all collected fractions was accomplished in a γ - counter. […]

Row | Compound | tissue uptake at 1 h ([6]; Adrenals) | tissue uptake at 1 h ([6]; Blood) | tissue uptake at 1 h ([6]; Bone) | tissue uptake at 1 h ([6]; Heart) | tissue uptake at 1 h ([6]; Intestine) | tissue uptake at 1 h ([6]; Kidneys) | tissue uptake at 1 h ([6]; Liver) | tissue uptake at 1 h ([6]; Lung) | tissue uptake at 1 h ([6]; Muscle) | tissue uptake at 1 h ([6]; Pancreas) | tissue uptake at 1 h ([6]; Spleen) | tissue uptake at 1 h ([6]; Stomach) | tissue uptake at 1 h ([6]; Tumor) | also measured
1 | O=C(O)CCC(NC(=O)NC(CCCCNC(=O)c1ccc([18F])nc1)C(=O)O)C(=O)O (centres unmarked) [19/18F-DCFPyL, 2-(3-{1-Carboxy-5-[(6-[^18F]fluoro-pyridine-3-carbonyl)-amino]-pentyl}-ureido)-pen tanedioic acid] | – | – | – | – | – | – | – | – | – | – | – | – | – | Internalization [1]: 118 ± 4 % of reference; HSA-binding [2]: 14%; Biodistribution, Adrenals [3]: 5.0 ± 4.0 %ID/g; Biodistribution, Blood [3]: 0.34 ± 0.30 %ID/g; Biodistribution, Bone [3]: 0.12 ± 0.02 %ID/g; Biodistribution, Heart [3]: 0.25 ± 0.09 %ID/g; Biodistribution, Intestine [3]: 0.14 ± 0.02 %ID/g; Biodistribution, Kidneys [3]: 152.4 ± 15.3 %ID/g; Biodistribution, Liver [3]: 1.7 ± 0.2 %ID/g; Biodistribution, Lung [3]: 0.46 ± 0.05 %ID/g; Biodistribution, Muscle [3]: 0.11 ± 0.02 %ID/g; Biodistribution, Pancreas [3]: 0.20 ± 0.10 %ID/g; Biodistribution, Spleen [3]: 9.6 ± 4.4 %ID/g; Biodistribution, Stomach [3]: 0.20 ± 0.03 %ID/g; Biodistribution, Tumor ([3]; LNCaP tumor): 7.3 ± 1.5 %ID/g
2 | CC(C)(C)[Si](F)(c1ccc(C(=O)NC[C@@H](NC(=O)CCC(C(=O)O)N2CCN(CC(=O)O)CCN(CC(=O)O)CCN(CC(=O)O)CC2)C(=O)N[C@H](CCCCNC(=O)CCC(=O)NCCC[C@@H](NC(=O)CC[C@H](NC(=O)N[C@@H](CCC(=O)O)C(=O)O)C(=O)O)C(=O)O)C(=O)O)cc1)C(C)(C)C (some centres unmarked) [68/natGa-19/18F-rhPSMA-7, metal not drawn] | 6.7 ± 2.2 %ID/g | 1.9 ± 0.1 %ID/g | 0.52 ± 0.11 %ID/g | 1.2 ± 0.3 %ID/g | 0.43 ± 0.07 %ID/g | 34.1 ± 6.6 %ID/g | 0.77 ± 0.1 %ID/g | 1.7 ± 0.2 %ID/g | 0.42 ± 0.22 %ID/g | 0.71 ± 0.11 %ID/g | 13.8 ± 5 %ID/g | 0.51 ± 0.07 %ID/g | 8.6 ± 0.2 %ID/g | Internalization [4]: 126 ± 13 % of reference; Lipophilicity log PO/PBS [5]: - 3.2 ± 0.05
3 | CC(C)(C)[Si](F)(c1ccc(C(=O)NC[C@@H](NC(=O)CN2CCN(CC(=O)O)CCN(CC(=O)O)CCN(CC(=O)O)CC2)C(=O)N[C@H](CCCCNC(=O)CCC(=O)NCCC[C@@H](NC(=O)CC[C@H](NC(=O)N[C@@H](CCC(=O)O)C(=O)O)C(=O)O)C(=O)O)C(=O)O)cc1)C(C)(C)C [68/natGa-19F-rhPSMA-10, metal not drawn] | 2.2 ± 0.3 %ID/g | 1.5 ± 0.3 %ID/g | 0.35 ± 0.13 %ID/g | 0.75 ± 0.13 %ID/g | 0.47 ± 0.21 %ID/g | 77.5 ± 13.6 %ID/g | 0.7 ± 0.2 %ID/g | 1.3 ± 0.2 %ID/g | 0.33 ± 0.1 %ID/g | 0.51 ± 0.03 %ID/g | 9.4 ± 1.6 %ID/g | 0.42 ± 0.12 %ID/g | 11.7 ± 1.9 %ID/g | IC50 [7]: 3.8 ± 0.3 nM
